Source: ChEMBL document CHEMBL1250451, “Mechanistic insights into a Ca2+-dependent family of alpha-mannosidases in a human gut symbiont” (Nat Chem Biol, 2010)

Assays:
Assay type in all cases: protein assay
[1] = substrate: O=[N+]([O-])c1ccc(O[C@H]2O[C@H](CO)[C@@H](O)[C@H](O)[C@@H]2O)cc1; test: Ratio of Kcat to Km for Bacteroides thetaiotaomicron GH92 alpha-mannosidase GH92 alpha-mannosidase 2948 assessed as mannose release after 16 hrs by HPLC
[2] = substrate: O=[N+]([O-])c1ccc(O[C@H]2O[C@H](CO)[C@@H](O)[C@H](O)[C@@H]2O)cc1; test: Ratio of Kcat to Km for Bacteroides thetaiotaomicron GH92 alpha-mannosidase GH92 alpha-mannosidase 3130 assessed as mannose release after 16 hrs by HPLC
[3] = substrate: O=[N+]([O-])c1ccc(O[C@H]2O[C@H](CO)[C@@H](O)[C@H](O)[C@@H]2O)cc1; test: Activity of Bacteroides thetaiotaomicron GH92 alpha-mannosidase GH92 alpha-mannosidase 3130 assessed as mannose release after 16 hrs by HPLC
[4] = substrate: O=[N+]([O-])c1ccc(O[C@H]2O[C@H](CO)[C@@H](O)[C@H](O)[C@@H]2O)cc1; test: Activity of Bacteroides thetaiotaomicron GH92 alpha-mannosidase GH92 alpha-mannosidase 1878 assessed as mannose release after 16 hrs by HPLC
[5] = substrate: O=[N+]([O-])c1ccc(O[C@H]2O[C@H](CO)[C@@H](O)[C@H](O)[C@@H]2O)cc1; test: Ratio of Kcat to Km for Bacteroides thetaiotaomicron GH92 alpha-mannosidase GH92 alpha-mannosidase 1878 assessed as mannose release after 16 hrs by HPLC
[6] = substrate: O=[N+]([O-])c1ccc(O[C@H]2O[C@H](CO)[C@@H](O)[C@H](O)[C@@H]2O)cc1; test: Activity of Bacteroides thetaiotaomicron GH92 alpha-mannosidase 1032 assessed as mannose release after 16 hrs by HPLC
[7] = substrate: O=[N+]([O-])c1ccc(O[C@H]2O[C@H](CO)[C@@H](O)[C@H](O)[C@@H]2O)cc1; test: Ratio of Kcat to Km for Bacteroides thetaiotaomicron GH92 alpha-mannosidase 1032 assessed as mannose release after 16 hrs by HPLC
[8] = substrate: O=[N+]([O-])c1ccc(O[C@H]2O[C@H](CO)[C@@H](O)[C@H](O)[C@@H]2O)cc1; test: Ratio of Kcat to Km for Bacteroides thetaiotaomicron GH92 alpha-mannosidase GH92 alpha-mannosidase 3858 assessed as mannose release after 16 hrs by HPLC
[9] = substrate: O=[N+]([O-])c1ccc(O[C@H]2O[C@H](CO)[C@@H](O)[C@H](O)[C@@H]2O)cc1; test: Activity of Bacteroides thetaiotaomicron GH92 alpha-mannosidase GH92 alpha-mannosidase 3858 assessed as mannose release after 16 hrs by HPLC

B1: Alpha-1,2-mannosidase (BT_2948) (Bacteroides thetaiotaomicron), Q8A3K6 (protein)
chain: MKMKLLILAVLPFLTPINMNSQEEKASWVQYVNPLIGTEVWQSGVAVAGHEDPSGYTFPGVTEPFGMTEWTAHTLESKHAGTLHHRVPYWYKHNYISGFMGTHYPSGAVMFDYGAVELMPVVGQLKCRPEERSSSFTHITEKSKPHFYEVMLDDYQVKAQLSATKTSAILQFTYPQSDSAYVVVDAMPSMFTAGAPGYIHIDPVRKEISGKSIQSARGYRETGYFVVRFDKDFDSFGTFNLNNDYPEVIEEKYLFTQKEGKWVNGLKGIYTQDSKGVGHLRSEKIDPVIDFDWDWYKPADDFSFNDYQVTWSGKLKAPSTGEYTLGIQADDGARLYINGELLIDDWKSHSFSYQPTQKKISLEAGKMYDIKLEYYQHEWSSRIKLSWIRPDKKSSTSLLTGNRHLESSTKIGGYIRFKTGKNEVIKAIVGTSFISVEQARINLEREIGAKSMETISAQTEALWNKELSVIDLPGATEQDKIVFYTALYHSFLLPRSLSEDGKYRSPFDGKVHKGISFTDYSIWDTFRATHPLFVLLKPDFAGDLITGLLHAYDEGGWLPKWPNPGYTNCMMGTHSDAIIADAYVKGVRNFDVEKAKKAVLKNAYEKGNHIAWGRLGIMDYERLGYVPVDKYGESVARTMEFAYDDYCLSRFFAEKGEPDLSDKLGKRSKNFRNVLDKETKMVRARKADGSWSNPEDYDISVWSGFNPKGVYNYKKNYTLFVPHDVPELIRFLGGTDSLAVFMDELFDKDIYYVGDEFVMHAPYMYNLCKRPWMTQKRIYDIVNKYYLPTPSGLPGNDDCGQLSSWYIFSAMGFYPMCPASIEYQLGVPCLPGFVLHLPQNRTFTIKTKNFGKGNCYVRAVYLNGKPHRSSVITHSDIINGGEILFELTDKPAYNWFQ
With B1 the kcat/Km [1] was 42.7 M⁻¹ s⁻¹.

B2: Alpha-1,2-mannosidase, putative (BT_3130) (Bacteroides thetaiotaomicron), Q8A325 (protein)
chain: MKKLLLSVCAFSLTLATLQAGEITKYVNPFIGTGAIDGGLSGNNYPGATSPFGMIQLSPDTSEAPNWGDASGYDYNRNTIFGFSHTRLSGTGASDLIDITLMPTSSGRTSSAFTHDEEKARPGYYQVMLKDENINAELTTTQRNGIHRYQYPAGKDAEIILDMDHSADKGSWGRRIINSQIRILNDHAVEGYRIITGWAKLRKIYFYMEFSSPILTSTLRDGGRVHENTAVINGTNLHGCFRFGQLNGKPLTCKVALSSVSMENARQNMEQEAPHWDFDRYVAAADADWEKQLGKIEVKGTEVQKEIFYTALYHTMIQPNTMSDVNGEYMAADYTTRKVANNETHYTTFSLWDTFRASHPLYTLLEPERVTDFVKSMIRQYEYYGYLPIWQLWGQDNYCMIGNHSIPVITDAILKGIPGIDMEKAYEAVYNSSVTSHPNSPFEVWEKYGFMPENIQTQSVSITLEQAFDDWCVAQLAAKLNKDADYQRFHKRSEYYRNLFHPKTKFFQSKNDKGEWIEPFDPYQYGGNGGHPFTEGNAWQYFWYVPHNIQALMELTGGTKAFEQKLDTFFTSTYKSEQMNHNASGFVGQYAHGNEPSHHVAYLYNFAGQPWKTQKYVSHILNTLYNNTSSGYAGNDDCGQMSAWYVFSAMGFYPVNPADGRYIIGSPLLDECTLKLAGNKEFRIRTIRKSPEDIYIQSVTLNGKKHKDFFITHQDIMNGGTMVFKMGKKPSGWGK
In the case of B2, the kcat/Km [2] is reported as 112000 M⁻¹ s⁻¹, the Km [3] is reported as 510 µM and the kcat [3] is reported as 56.7 s⁻¹.

B3: Alpha-1,2-mannosidase (BT_1878) (Bacteroides thetaiotaomicron), Q8A6K3 (protein)
chain: MIIMKRKSPVMAVALAGLFMYTSCSPTEQAETKDYTQYVNTFIGAADNGHTFPGACYPFGMIQTSPVTGAVGWRYCSEYTYQDSLIWGFTQTHLNGTGCMDLGDILVMPVTGTRARAWDAYRSHFPKDKEAATPGYYTVELSDPQVKAELTASIHAALHRYTYHKADSASLLIDLQHGPAWREEQYHSQVNSCEVNWEDAQTLAGHVNNTVWVDQDYFFVMKFNRPVIDSLYLPMGETEKGKRIIATFDLKPGDELMMKVALSTTSVEGAKKNLQAEIPDWNFDGVKLAAHDEWNSYLSRMDVEGTDDEKTNFYTCFYHALIQPNQISDVDGMYRNAADSIVKAGTGTFYSTFSLWDTYRAAHPFYTLMVPERVDDFVNSLIEQGEVQGFLPIWALWGKENFCMIGNHGVSVIAEAYRKGFRGFDAERAFNMVKKTQTVSHPLKSDWEVYTKYGYFPTDLTKAESVSSTLESVYDDYAAADMARRMGKEEDAAYFAKRADYYKNLFDSQTNFMRPRKADGTWKSPFNPSDVGHAESTGGDYTEGNAWQYTWHVQHDVPGLIALFGGEEPFLNKLDSLFTVKLETTQADVTGLIGQYAHGNEPSHHVTYLYALAGRPERTQELIREIFDTQYKNKPDGLCGNDDCGQMSAWYMFSAMGFYPVDPVSGDYVFGAPQLPKIVLHLADGKTFTVIAENLSKEHKYVDSITLNGEPYTKNTISHEDILKGGTLVYKMK
Protein B3 has a Km [4] of 900 µM, a kcat [4] of 0.00133 s⁻¹ and a kcat/Km [5] of 1.48 M⁻¹ s⁻¹.

B4: Alpha-1,2-mannosidase family protein (BT_1032) (Bacteroides thetaiotaomicron), Q8A8Y5 (protein)
chain: MRRILLTCTLAFTLLPVFGGEGKAPPMDKEKSLLIDYVDPFIGTTNFGTTNPGAVCPNGMMSVVPFNVMGSADNTYDKDARWWSTPYEHTNCFFTGYSHVNLSGVGCPELGSLLLMPTTGELNVDYKEYGSKYKDEQASPGYYSNYLTKYNIKTEVSATPRTGIARFTFPKGESHILLNLGEGLTNESGAMLRRVSDSEIEGMKLLGTFCYNPQAVFPIYFVMRVNKVPATTGYWKKQRPMTGVEAEWDRDQGKYKLYTRYGKEIAGDDVGAYFTFETEEGEQVEVQMGVSFVSIENARLNLDKEQSGKNFEQVLSDARAQWNDDLSRITVEGGTDAQKTVFYTALYHLLIHPNVLQDVNGEYPAMESDQILTTKGTRYTVFSLWDTYRNVHQLLTLVYPERQMEMVRTMLDMYREHGWFPKWELYGRETLTMEGDPSIPVIVDTWMKGLRDFDVDLAYEAMYKSATLPGAENLMRPDNDDYMSKGYVPLREQYDNSVSHALEYYIADFALSRFADALGKKKDAEMFYKRSLGYKHYYSKEFGTFRPILPDGTFYSPFNPRQGENFEPNPGFHEGNSWNYTFYVPHDVYGLAKLMGGKKPFVNKLQMVFDEGLYDPANEPDIAYAHLFSYFKGEEWRTQKETQRLLDKYFTTKPDGIPGNDDTGTMSAWAIFNMIGFYPDCPGLPEYALTTPVFNKVTIRLDPKWYKENELVIESNRTGSETLYINKVLLDGKKFNKYRITHDELVHGKRLIFDLK
B4 was tested, and the Km [6] was 1700 µM, the kcat [6] was 0.006 s⁻¹ and the kcat/Km [7] was 3.5 M⁻¹ s⁻¹.

B5: Alpha-1,2-mannosidase (BT_3858) (Bacteroides thetaiotaomicron), Q8A113 (protein)
chain: MMMNRLNIKRTVGSCLMAMAFFSCTHTDQTPTKDFVDYVNPYIGNISHLLVPTYPTVHLPNSMLRVYPERGDYTSDRVNGLPVVVTSHRGSSAFNLSPVQGEVSRPIVSYSYDLENITPYSYSVYLDEADIQVEYAPSHQAGIYHISFGTEGDNALVVNTKNGKLVAEEKGVSGYQVIDNTPTKIYLYLETSQLPLRKGVLADGKVDMESKEGSAIALYYGSEKNLNLRYGISFISAEQAKKNLQRDITTYDVKAVADAGRRIWNKTLGKIVIEGGSEDEKEIFYTSLYRTYERMINLSEDGKYYSAFDGKIHEDGGVPFYTDDWIWDTYRATHPLRILIEPQKELDMIRSYIRMAEQSDRRWMPTFPEVTGDSHRMNGNHAVAVIWDAYCKGLKDFDLEAAYEACKGAITEKTLLPWLRCPLTELDKFYQEKGFFPALNPGEEETCKAVHSFERRQAVAVMLGNCYDNWCLAQIARTLNKTDDYKKFMRMSYTYRNVYNAETGFFHPKNKDGKFIEPFDYRYSGGQGARGYYGENNGWIYRWDVQHNPADLIALMGGQASFIERLNQTFNEPLGRSKFDFYHQLPDHTGNVGQFSMANEPCLHIPYLYNYAGQPWMTQKRIRVLLNQWFRNDLMGVPGDEDGGGMTAFVVFSMMGFYPVTPGSPTYNIGSPVFQSAKMEVGDGHYFEIIAENYAPDHKYIQSATLNGTPWNKPWFSHADIQNGGRLVLQMGDKPNKKWGIASDAVPPSSESLPE
For B5, the kcat/Km [8] was 1.57 M⁻¹ s⁻¹, the Km [9] was 270 µM and the kcat [9] was 0.000417 s⁻¹.
